{"source": "IntAct's records for PubMed 18366438", "parents": {"B1": {"name": "DNA primase (Geobacillus stearothermophilus), Q9X4D0 (parent)", "chain": "MGHRIPEETIEAIRRGVDIVDVIGEYVQLKRQGRNYFGLCPFHGEKTPSFSVSPEKQIFHCFGCGAGGNAFTFLMDIEGIPFVEAAKRLAAKAGVDLSVYELDVRGRDDGQTDEAKAMTEAHALLKRFYHHLLVHTKEGQAALDYLQARGWTKETIDRFEIGYAPDAPDAAAKLLESHSFSLPVMEKAGLLTKKEDGRYVGRFRNRIMFPIHDHRGETVGFSGRLLGEGHPKYVNSPETPVFRKGAILYHFHAARVPIRKRQEALLVEGFADVISAAQAGIDYAIATMGTSLTEEQARILRPCDTITICYDGDRAGIEAAWAAAEQLSALGCRVKVASLPNGLDPDEYIRVYGGERFAGEAGCRRPLVAFKMAYLRRGKNLQHEGERLRYIDEALREIGKLSSPVEQDYYLRQLAEEFSLSLSALHEQLSRSQRERTKPREAPDGETARPMLAKKLLPAFQNAERLLLAHMMRSRDVALVVQERIGGRFNIEEHRALAAYIYAFYEEGHEADPGALISRIPGELQPLASDVSLLLIADDVSEQELEDYIRHVLNRPKWLMLKVKEQEKTEAERRKDFLTAARIAKEMIEMKKMLSSS", "partner": "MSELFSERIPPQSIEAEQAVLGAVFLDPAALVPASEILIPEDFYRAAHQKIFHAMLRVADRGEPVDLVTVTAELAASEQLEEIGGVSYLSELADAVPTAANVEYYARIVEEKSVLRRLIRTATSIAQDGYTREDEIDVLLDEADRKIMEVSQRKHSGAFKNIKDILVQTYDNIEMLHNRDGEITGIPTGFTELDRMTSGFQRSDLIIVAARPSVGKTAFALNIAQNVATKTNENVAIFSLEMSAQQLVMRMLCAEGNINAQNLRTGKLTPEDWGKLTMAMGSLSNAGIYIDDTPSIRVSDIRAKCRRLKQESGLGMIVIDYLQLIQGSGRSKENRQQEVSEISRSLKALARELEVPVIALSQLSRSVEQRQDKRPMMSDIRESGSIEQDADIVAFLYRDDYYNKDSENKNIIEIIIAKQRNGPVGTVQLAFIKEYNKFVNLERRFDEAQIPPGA"}}, "data": [{"variants_of": "B1", "conditions": "with dnab_geose dnaB", "values": [{"variant": "Y548A", "effect of a mutation on the interaction": "decreasing interaction strength"}]}, {"variants_of": "B1", "conditions": "with dnab_geose dnaB", "remark": "another data set of the same source", "values": [{"variant": "P458A", "effect of a mutation on the interaction": "decreasing interaction strength"}]}]}
